# B1: HDP1 DNA-binding domain (HDP1-DBD), aa2991-3078 (domain or fragment, P. falciparum, UniProt A0A2I0C2C6 2991-3078, looked up)
# chain: SEVQVSNINTPSSYNISARRRRRIGNNGPPSAEELNRLLNIQHLTIPEIATIYGVHRTTIARWCNIRNITSNSMNNSPGKRRKNEDNK
# Target: the molecule itself
# Assay: ITC
protein,measurement,value
B1,binding result,binds

# — publication doi:10.1101/2020.10.26.352583 (bioRxiv, 2020)
